In paper PMC5779698, “Identification and analysis of OsttaDSP, a phosphoglucan phosphatase from Ostreococcus tauri” (PLoS ONE, 2018) one finds stoichiometry N and K0.5 data, which are given here for two molecules.

The target in series [1] is OsttaDSP, dual specific phosphatase from Ostreococcus tauri, mature protein lacking the chloroplast transit peptide (Ostreococcus tauri). As to the kind of experiment: SEC; HiPrep Sephacryl S-300 High-Resolution column, calibrated with a molecular weight kit; affinity-purified mature OsttaDSP, single peak of an estimated 54.4 kDa.
Substrate in the series “purified protein”: O=[N+]([O-])c1ccc(OP(=O)(O)O)cc1
As to the kind of experiment: purified protein. The class given is biochemical, Ostreococcus tauri. The settings on record: pH 7, 37 °C, 2 mM DTT, hyperbolic saturation.

Broadly, the stoichiometry N is a count of units in the complex or per binding partner. With “OsttaDSP, dual specific phosphatase from Ostreococcus tauri, mature protein lacking the chloroplast transit peptide (enzyme)”, the stoichiometry N in series [1] was 2.

B1: OsttaDSP (Ostreococcus tauri) (protein)
chain: ATTTTRRGLADDDAYNAAMRAYSASPYEYKHDIGLYYHRIKPFLIVGTQPQTPADVDRLRETEGVTCVFNTQQEKDWKYWNVDYDSVRARAIETGMRHVRYPFEDFSADSLREGLPSAAAMLDAEIERGETVYLHCTAGMGRSPGLAIAYMYWFLDAYNTLDGAYEGLTSIRPCGPKKESIRGATCDLLAAIESDGKVEPLKRELEENEGVVLSIVSKERIQRAVRAMLLSTSDETVAKPWWKVW
notes: mature protein lacking the first 26 residues (predicted chloroplast transit peptide), 245 residues, N-terminal His6 tag kept, synthetic gene, pRSFDuet-1, E. coli BL21(DE3) pLys; homodimer
For the molecule B1, the K0.5 in the series “purified protein” stood at 22.7 ± 3.4 mM.
